# Assays:
# [1] = OTA detoxification activity assay (specific activity, fluorescence reduction ex/em 390/450 nm); format: biochemical; settings: SEQ ID NO: 1 = 100%
# Outline: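 Recombinant enzyme preparation with 200 ng/mL OTA in 100 mM sodium phosphate, at pH 6.0 and pH 7.5, 37° C. Degradation followed as the fall in fluorescence at ex/em 390/450 nm. Specific activity taken from the initial linear slope; one unit degrades 1 μmol OTA per min at a starting OTA of […].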
# [2] = Enzymatic activity comparison: activity remaining after 65° C. for 10 min at pH 6.0, relative to SEQ ID NO: 1; format: physicochemical
# Experimental: To compare the temperature behavior and thermostability of selected enzymes to one another, enzyme was incubated at 65° C. for 10 min at pH 6.0. The enzymatic activity remaining after incubation was compared to the remaining activity of the enzyme of SEQ ID NO: 1 after incubation, the latter being set to 100%, see Table 16.
Molecule,"Specific OTA detoxification activities in % compared to the enzyme of SEQ ID NO: 1, pH 6.0 [1]","Specific OTA detoxification activities in % compared to the enzyme of SEQ ID NO: 1, pH 7.5 [1]","Enzymatic activity remaining after incubation, compared to SEQ ID NO: 1 (set to 100%) [2]"
"119 (protein, exemplary polypeptide) MTTRTRILTAFLSLLAANACAADAAPAAPHTVVLRAARMFDGASGKLVDHPQLTIVGNKIVRIAQGDKAEVPAGAEVVDLGDATLLPGFIDAHVHLSGQSSDNWYGDFFDNMMRFPAEQALRGAYYARITLEAGFTSVRDVGSTDWVALGLRNAIDAGKVPGPRMLVSNYAVGSTGGHADQDPIPPHKLPLAGPLQGVCNGPEECRAAVRYQIKYGANVIKFMPSGGVLSLSDPVDAPELSQDEMNAVIGESHAWGRKVAAHAHGDKAAKMAVAAGVDSIEHGSFIEDDTLRAMKAKNVYLVPTISAIAHVEEKIGTFPPVIAEKGRAAAAHLRQTFRHAVQIGVPIALGTDAGVGAHGSNAREFRYMVENGLTPAQALLAGTANAARLLGTFDRVGTLEAGKLADVVAVPGNPIADITVTERPLFVMKDGVVVRRDAVR",107%,101%,45%
"121 (protein, exemplary polypeptide) MTTRTRILTAFLSLLAANACAADAAPAAPHTVVLRAARMFDGASGKLVDHPQLTIVGNKIVRIAQGDKAEVPAGAEVVDLGDATLLPGFIDAHVHLSGQSSDNWYGDFYDNMMRFPAEQALYGAYYARITLEAGFTSVRDVGSTDWVALGLRNAIDAGKVPGPRMLVSNYAVGSTGGHADQDPIPPHKLPLAGPLQGVCNGPEECRAAVRYQIKYGANVIKFMPSGGVLSLSDPVDAPELSQDEMNAVIGESHAWGRKVAAHAHGDKAAKMAVAAGVDSIEHGSFIEDDTLRAMKAKNVYLVPTISAIAHVEEKIGTFPPVIAEKGRAAAAHLRQTFRHAVQIGVPIALGTDAGVGAHGSNAREFRYMVENGLTPAQALLAGTANAARLLGTFDRVGTLEAGKLADVVAVPGNPIADITVTERPLFVMKDGVVVRRDAVR",84%,78%,40%
"127 (protein, exemplary polypeptide) MTTRTRILTAFLSLLAANACAADAAPAAPHTVVLRAARMFDGASGKLVDHPQLTIVGNKIVRIAQGDKAEVPAGAEVVDLGDATLLPGFIDAHVHLSGQSSDNWYGDFFDNMMRFPAEQALYGAYYARITLEAGFTSVRDVGSTDWVALGLRNAIDAGKVPGPRMLVSNYAVGSTGGHADQDPIPPHKLPLAGPLQGVCNGPEECRAAVRYQIKYGANVIKFMPSGGVLSLSDPVDAPELSQDEMNAVIGESHAWGRYVAAHAHGDKAAKMAVAAGVDSIEHGSFIEDDTLRAMKAKNVYLVPTISAIAHVEEKIGTFPPVIAEKGRAAAAHLRQTFRHAVQIGVPIALGTDAGVGAHGSNAREFRYMVENGLTPAQALLAGTANAARLLRTFDRVGTLEAGKLADVVAVPGNPIADITVTERPLFVMKDGVVVRRDAVR",78%,82%,64%
"124 (protein, exemplary polypeptide) MTTRTRILTAFLSLLAANACAADAAPAAPHTVVLRAARMFDGASGKLVDHPQLTIVGNKIVRIAQGDKAEVPAGAEVVDLGDATLLPGFIDAHVHLSGQSSDNWYGDFFDNMMRFPAEQALYGAYYARITLEAGFTSVRDVGSTDWVALGLRNAIDAGKVPGPRMLVSNYAVGSTGGHADQDPIPPHKLPLAGPLQGVCNGPEECRAAVRYQIKYGANVIKFMPSGGVLSLSDPVDAPELSQDEMNAVIGESHAWGRKVAAHAHGDKAAKMAVAAGVDSIEHGSFIEDDTLRAMKAKNVYLVPTISAIAHVEEKIGYFPPVIAEKGRAAAAHLRQTFRHAVQIGVPIALGTDAGVGAHGSNAREFRYMVENGLTPAQALLAGTANAARLLGTFDRVGTLEAGKLADVVAVPGNPIADITVTERPLFVMKDGVVVRRDAVR",87%,78%,42%
"122 (protein, exemplary polypeptide) MTTRTRILTAFLSLLAANACAADAAPAAPHTVVLRAARMFDGASGKLVDHPQLTIVGNKIVRIAQGDKAEVPAGAEVVDLGDATLLPGFIDAHVHLSGQSSDNWYGDFFDNMMRFPAEQALYGAYYARITLEAGFTSVRDVGSTDWVALGLRNAIDAGKVPGPRMLVSNYAVGSTGGHADQDPIPPHKLPLAGPLQGVCNGPEECRAAVRYQIKYGANVIKFMPSGGVLSLSDPVDAPELSPDEMNAVIGESHAWGRKVAAHAHGDKAAKMAVAAGVDSIEHGSFIEDDTLRAMKAKNVYLVPTISAIAHVEEKIGTFPPVIAEKGRAAAAHLRQTFRHAVQIGVPIALGTDAGVGAHGSNAREFRYMVENGLTPAQALLAGTANAARLLGTFDRVGTLEAGKLADVVAVPGNPIADITVTERPLFVMKDGVVVRRDAVR",59%,80%,40%
"120 (protein, exemplary polypeptide) MTTRTRILTAFLSLLAANACAADAAPAAPHTVVLRAARMFDGASGKLVDHPQLTIVGNKIVRIAQGDKAEVPAGAEVVDLGDATLLPGFIDAHVHLSGQSSDNWYGDFFDNMMRFPAEQALYGAYWARITLEAGFTSVRDVGSTDWVALGLRNAIDAGKVPGPRMLVSNYAVGSTGGHADQDPIPPHKLPLAGPLQGVCNGPEECRAAVRYQIKYGANVIKFMPSGGVLSLSDPVDAPELSQDEMNAVIGESHAWGRKVAAHAHGDKAAKMAVAAGVDSIEHGSFIEDDTLRAMKAKNVYLVPTISAIAHVEEKIGTFPPVIAEKGRAAAAHLRQTFRHAVQIGVPIALGTDAGVGAHGSNAREFRYMVENGLTPAQALLAGTANAARLLGTFDRVGTLEAGKLADVVAVPGNPIADITVTERPLFVMKDGVVVRRDAVR",85%,90%,23%
"125 (protein, exemplary polypeptide) MTTRTRILTAFLSLLAANACAADAAPAAPHTVVLRAARMFDGASGKLVDHPQLTIVGNKIVRIAQGDKAEVPAGAEVVDLGDATLLPGFIDAHVHLSGQSSDNWYGDFFDNMMRFPAEQALYGAYYARITLEAGFTSVRDVGSTDWVALGLRNAIDAGKVPGPRMLVSNYAVGSTGGHADQDPIPPHKLPLAGPLQGVCNGPEECRAAVRYQIKYGANVIKFMPSGGVLSLSDPVDAPELSQDEMNAVIGESHAWGRKVAAHAHGDKAAKMAVAAGVDSIEHGSFIEDDTLRAMKAKNVYLVPTISAIAHVEEKIGTYPPVIAEKGRAAAAHLRQTFRHAVQIGVPIALGTDAGVGAHGSNAREFRYMVENGLTPAQALLAGTANAARLLGTFDRVGTLEAGKLADVVAVPGNPIADITVTERPLFVMKDGVVVRRDAVR",58%,94%,100%

# Reference: patent US20240352438A1, “MEANS AND METHODS FOR DETOXIFYING OCHRATOXIN A” (DSM Austria GmbH, priority 2021, published 2024)
